The data set relates to MS2 coat protein. Description: apparent KD of MS2 coat protein; designed switch direction (-1 OFF switch, 1 ON switch): -1; higher = weaker reporter binding. The method, boiled down:
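For each design, the apparent KD is the median over clusters of curves fitted to normalised cluster fluorescence. Clusters held RNA switches with common flanks, transcribed on Illumina chips by stalled E. coli RNA polymerase. These were titrated with SNAP-549-labelled MS2 coat protein, doubling from 0.7 or 1.5 nM to 3 µM, without input, with 200 uM small-molecule ligand, or with an oligonucleotide input.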

Where [1] appears, read: Eterna round: R95, input ligand: FMN 200 uM.
[2] abbreviates: Eterna round: R95, input ligand: microRNA oligo, concentration not stated.
Setting [3] is: Eterna round: R95, input ligand: none.
The mark [4] stands for this setting: input ligand: microRNA oligo, concentration not stated.

For “GGUGGGCUAGGAUAUGCUUUGGGAAAGCAUUCCUUCGAUAAACUUGAGGAUCACCCAAGUAGAAGGAGCUUGCC [salish99_ex2_r4_020] (Eterna round: R97, puzzle: Exclusion 2)”, the “apparent KD of MS2 coat protein” value was found to be 16.4 nM (input ligand: FMN 200 uM) and 13.4 nM (input ligand: none).

As to “CAUGAUCUUCGGAUCAUGUACAUGAGGAUCACCCAUGUGACGAGUAUAUCCUCAAACAAGCUUUUUGCUCGUCUUAU [Sensor v3 - Turn-off variant 1 - 22] (puzzle: Sensor v3, turn-off variant 1)”, the “apparent KD of MS2 coat protein” value under setting [1] was found to be 299 nM, the “apparent KD of MS2 coat protein” value under setting [2] was 417 nM and the “apparent KD of MS2 coat protein” value under setting [3] was 327 nM.

As for “ACUUACUGAGGAUAUACUUAGAUUUACAUGAGGAUCACCCAUGUUCCUCUAUGUAUAUAUGUAGAAGGCAGAAGUU [Mat - Exclusion 5 - JL Mod - D49] (Eterna round: R97, puzzle: Exclusion 5)”, the “apparent KD of MS2 coat protein” value is, setting by setting: (input ligand: FMN 200 uM) 216 nM; (input ligand: none) 38.1 nM.

Consider “CUCGUGUGAGGAUAUUCACACCCGUUGCAGCGACGGACAAAGAAGAAGGCACAUGAGGAUCACCCAUGUAAAGA [Onan] (Eterna round: R97, puzzle: Exclusion 4)”, for which the “apparent KD of MS2 coat protein” value is, setting by setting: (input ligand: FMN 200 uM) 97.8 nM; (input ligand: none) 192 nM.

For “CCUCCACAGUAGGAUAUCAUCAAACUAUUGUGAUGAGAAGGACUGACAUGAGGAUCACCCAUGUUAACGUGAUG [Mod of Brourd 7 - Jieux - Exclusion 6] (Eterna round: R97, puzzle: Exclusion 6)”, the “apparent KD of MS2 coat protein” value worked out at 25.3 nM (input ligand: FMN 200 uM) and 22.9 nM (input ligand: none).

Consider “UUAAUGUGAGGAUAUCAGGUGUGCUAGCGUACUGGUACAUCUGAGAAGGCACAUGAGGAUCACCCAUGUUCCUU [JL-ex4-3.27 Brourd mod] (puzzle: Exclusion 4)”, for which the “apparent KD of MS2 coat protein” value under setting [2] is 16.2 nM.

Regarding “GGCAGACAUGAGGAUCACCCAUGUCAGGAUAUGUGGCGAUCGUCGAAAGACGAUAGCCACAGAAGGGACAUGCC [Eli x1 4.20] (Eterna round: R97, puzzle: Exclusion 1)”, the “apparent KD of MS2 coat protein” value runs as follows: (input ligand: FMN 200 uM) 40.7 nM; (input ligand: none) 22.4 nM.

For the sequence “CAUUAGCAAGCGAGAUCCCACAUGAGGAUCACCCAUGUGCUCGUCUUAUAAGGUACUGUGACGAUAGUCACGGUACC [Mat - Sensor, turn-off var - Eli Mod - D41] (Eterna round: R97, puzzle: Sensor, turn-off variant 1)”, the “apparent KD of MS2 coat protein” value reads like this: (input ligand: FMN 200 uM) 17.1 nM; (input ligand: none) 14.3 nM.

As to “AAAUAGCUAGAGGAUAUUGGAUAGGAUUUAGUGCGAGAAGGCUAGACAUGAGGAUCACCCAUGUUGUGUUGGGA [EX6 #14] (Eterna round: R97, puzzle: Exclusion 6)”, the “apparent KD of MS2 coat protein” value came to 82.3 nM (input ligand: FMN 200 uM) and 50.3 nM (input ligand: none).

Turning to “CUGAGUAGUCAGGAUAUGUGGUACAAAAGUACAGCAGAAGGGAUUACAUGAGGAUCACCCAUGUUUACUUCAUG [Omei Ex6 B16] (Eterna round: R97, puzzle: Exclusion 6)”, the “apparent KD of MS2 coat protein” value by setting is: (input ligand: FMN 200 uM) 57.9 nM; (input ligand: none) 32.6 nM.

For the sequence “AGUCUGCGAGGAUAUACAUGAGGAUCACCCAUGUGCGAGAUACUAGUGAGGUCGAUUGGUAGAAGGCGCGGACG [Mat - Exclusion 3 - Mod of JL D85] (puzzle: Exclusion 3)”, the “apparent KD of MS2 coat protein” value reads like this: under setting [1], 86.4 nM; under setting [2], 93.1 nM; under setting [3], 67 nM.

For “GGCAGGCUAGAGGAUAUGCAUUGGCUUGGCCAAGCAGAAGGCUAGACAUGAGGAUCACCCAUGUGUUCCUUGUG [jl-ex6-4.36 ViennaUCT mod] (Eterna round: R97, puzzle: Exclusion 6)”, the “apparent KD of MS2 coat protein” value turned out to be 83.5 nM (input ligand: FMN 200 uM) and 93.6 nM (input ligand: none).

With “CUGAUGGACUAGGAUAUCCUCAUCGAUCAGGGAGGAGAAGGAGUCACAUGAGGAUCACCCAUGUGAUGGUAAAA [Atqubi] (puzzle: Exclusion 6)”, the “apparent KD of MS2 coat protein” value runs as follows: under setting [1], 14.9 nM; under setting [2], 11.9 nM; under setting [3], 13.6 nM.

Consider “GCGGACUAGAUCGUGAGAUCUGAGACAUGAGGAUCACCCAUGUAGGAUAUCGAUUCGAAACGAAUCGAGAAGGGCAUAGUCCGC [JL denovo 8] (Eterna round: R96, puzzle: Exclusion NG 3)”, for which the “apparent KD of MS2 coat protein” value is, setting by setting: (input ligand: FMN 200 uM) 23.1 nM; under setting [4], 16 nM; (input ligand: none) 22 nM.

As to “AUAAAUCAUGUAGGAUAUGCGUGGCGAAGCUAUGCAGAAGGACAUGAGGAUCACCCAUGUCUUUCCGUCUGCGUACAGACGGAA [Mat - Exclusion NG 1 - Mod of JL - D41] (Eterna round: R96, puzzle: Exclusion NG 1)”, the “apparent KD of MS2 coat protein” value by setting is: (input ligand: FMN 200 uM) 289 nM; under setting [4], 23.6 nM; (input ligand: none) 24.5 nM.

With “GCCUCACUUGAGGAUCACCCAAGUCAGGAUAUCUACAGGCCGGCCAUACCAGCCUGCAAGAGAAGGGACUCUAA [Isriqu] (Eterna round: R97, puzzle: Exclusion 1)”, the “apparent KD of MS2 coat protein” value (input ligand: FMN 200 uM) was 245 nM and the “apparent KD of MS2 coat protein” value (input ligand: none) was 32.3 nM.

On to “AUGCUCCGUGUAGGAUAUCGCCGCAUCACUCGGCGAGAAGGACAUGAGGAUCACCCAUGUAUGUUAUUAUCACGUGUGGCGCGC [Design 44] (Eterna round: R96, puzzle: Exclusion NG 1)”, for which the “apparent KD of MS2 coat protein” value is, setting by setting: (input ligand: FMN 200 uM) 52.3 nM; under setting [4], 16.7 nM; (input ligand: none) 25.3 nM.

In the case of “AAGAAACAUGAGGAUCACCCAUGUGAGGAUAUGAUUAAGAAAAGAAAAGAAAGAAGAUUCAGAAGGCACAAAGG [salish99-ex1_r3_054] (puzzle: Exclusion 1)”, the “apparent KD of MS2 coat protein” value amounted to 91.4 nM under setting [1], 72.5 nM under setting [2] and 82.9 nM under setting [3].

“CAGUACUGAGGAUAUACAUGAGGAUCACCCAUGUGUUCCAGCUAGGAAACGAGCAAAAGUAGAAGGCAGUACUG [salish99_ex3_r3_071] (puzzle: Exclusion 3)”: the “apparent KD of MS2 coat protein” value under setting [2] came out at 19.7 nM.

Regarding “GUCAGCUCGUCAGGAUAUGAACAUGAGGAUCACCCAUGUAAGAUCAAGCUGCUUCGGCAGCAAGUUCAGAAGGGACGAGCUGAC [ENG2/10-B1] (Eterna round: R96, puzzle: Exclusion NG 2)”, the “apparent KD of MS2 coat protein” value (input ligand: FMN 200 uM) came out at 161 nM, the “apparent KD of MS2 coat protein” value under setting [4] was found to be 78.7 nM and the “apparent KD of MS2 coat protein” value (input ligand: none) is 113 nM.

With “AUAAAAUGCCAAGGAUAUCGGAAAGGAAGUGUACGAGAAGGUGGAGAUCCUAUACAUGAGGAUCACCCAUGUAUCAAGCUUGGG [PowerStrip EXNG 1.10] (Eterna round: R96, puzzle: Exclusion NG 1)”, the “apparent KD of MS2 coat protein” value worked out at 692 nM (input ligand: FMN 200 uM), 510 nM under setting [4] and 760 nM (input ligand: none).

Consider “UUGAAGUCAUCAGGAUAUAGUUUUAAUGUCAUGCUUAAGUUCUUACAUGAGGAUCACCCAUGUCGCUAGAAGGGAUUAUAGAUU [JR_ExcNG2_Sub078] (Eterna round: R96, puzzle: Exclusion NG 2)”, for which the “apparent KD of MS2 coat protein” value was determined as 66.8 nM (input ligand: FMN 200 uM), 42.6 nM under setting [4] and 67.7 nM (input ligand: none).

In the case of “AGUAGUUACGUAGGAUAUGAGGAUCACCCAUAGAAGGAUAUCGAAAGAGAAGGUCUGAGGAUUACCCAGAAGGACGUGACUACA [pwkr exNG2 2xF5 2xFMN.9] (Eterna round: R96, puzzle: Exclusion NG 2)”, the “apparent KD of MS2 coat protein” value (input ligand: FMN 200 uM) is 334 nM, the “apparent KD of MS2 coat protein” value under setting [4] is 113 nM and the “apparent KD of MS2 coat protein” value (input ligand: none) stood at 138 nM.

As for “CGGCAAUCCAAGGAUAUGCUAGACGAAAGUCUAGCAGAAGGUGGAACAUGAGGAUCACCCAUGUGUCCAAGCCG [Eli x6 4.04] (Eterna round: R97, puzzle: Exclusion 6)”, the “apparent KD of MS2 coat protein” value is 21.1 nM (input ligand: FMN 200 uM) and 15.3 nM (input ligand: none).

Regarding “CUCUUGUUAGGAUAUCAAACCAGCGGCGGAACCGCUGGUAGUGAGAAGGGACAUGAGGAUCACCCAUGUAAGAA [Bige] (puzzle: Exclusion 4)”, the “apparent KD of MS2 coat protein” value worked out at 108 nM under setting [1], 51.1 nM under setting [2] and 61.3 nM under setting [3].

As to “GUCUCACAUGAGGAUCACCCAUGUGAGGAUAUGGUUUCGCUGGCCGUAGCCAGUGGAACCAGAAGGCGCAUGAU [Mat - Exclusion 1 - JL Mod - D3] (Eterna round: R97, puzzle: Exclusion 1)”, the “apparent KD of MS2 coat protein” value was 24.7 nM (input ligand: FMN 200 uM) and 23 nM (input ligand: none).

On to “CUGGUCCGAGGAUAUAUUAAGUGAUACAUGAGGAUCACCCAUGUUAUUUAAUGGAUGUAAAUAGAAGGCGGACUAG [Mat - Exclusion 5 - JL mod - D70] (puzzle: Exclusion 5)”, for which the “apparent KD of MS2 coat protein” value reads like this: under setting [1], 51 nM; under setting [2], 42.6 nM; under setting [3], 44.6 nM.

As for “AUAAAACGAGGAUAUGCUGGGCUUCUGUGAUGCAUAUGCUCACAUGAGGAUCACCCAUGUAGAAGGUGUAAAAU [Laaceve] (Eterna round: R96, puzzle: Exclusion 2)”, the “apparent KD of MS2 coat protein” value turned out to be 389 nM (input ligand: FMN 200 uM), 221 nM under setting [4] and 331 nM (input ligand: none).

For the sequence “UUUAUGCUAGGAUAUGCACCCUCGAACAUGAGGAUCACCCAUGUACAAUAAACGCAUGGAGCAGAAGGAGCUCCGA [EX5 A.5] (Eterna round: R97, puzzle: Exclusion 5)”, the “apparent KD of MS2 coat protein” value worked out at 203 nM (input ligand: FMN 200 uM) and 86.7 nM (input ligand: none).

“GAUCAACAUGAGGAUCACCCAUGUGAGGAUAUGAUACUAUGUACUUCGGUACAUAGUAUCAGAAGGCAUAUUGA [Ex1-3: 41] (puzzle: Exclusion 1)”: the “apparent KD of MS2 coat protein” value under setting [2] was determined as 50.7 nM.

(Values after the supplement of paper PMC9170038.)
